Source: article PMC10841737 (Biochemistry, 2023)
Where two headings read alike, the source gives them in different places.

Key:
[1] = biological target: T1, Cdc13 (Saccharomyces cerevisiae, UniProt P32797 1-924); test: EMSA
T1 sequence: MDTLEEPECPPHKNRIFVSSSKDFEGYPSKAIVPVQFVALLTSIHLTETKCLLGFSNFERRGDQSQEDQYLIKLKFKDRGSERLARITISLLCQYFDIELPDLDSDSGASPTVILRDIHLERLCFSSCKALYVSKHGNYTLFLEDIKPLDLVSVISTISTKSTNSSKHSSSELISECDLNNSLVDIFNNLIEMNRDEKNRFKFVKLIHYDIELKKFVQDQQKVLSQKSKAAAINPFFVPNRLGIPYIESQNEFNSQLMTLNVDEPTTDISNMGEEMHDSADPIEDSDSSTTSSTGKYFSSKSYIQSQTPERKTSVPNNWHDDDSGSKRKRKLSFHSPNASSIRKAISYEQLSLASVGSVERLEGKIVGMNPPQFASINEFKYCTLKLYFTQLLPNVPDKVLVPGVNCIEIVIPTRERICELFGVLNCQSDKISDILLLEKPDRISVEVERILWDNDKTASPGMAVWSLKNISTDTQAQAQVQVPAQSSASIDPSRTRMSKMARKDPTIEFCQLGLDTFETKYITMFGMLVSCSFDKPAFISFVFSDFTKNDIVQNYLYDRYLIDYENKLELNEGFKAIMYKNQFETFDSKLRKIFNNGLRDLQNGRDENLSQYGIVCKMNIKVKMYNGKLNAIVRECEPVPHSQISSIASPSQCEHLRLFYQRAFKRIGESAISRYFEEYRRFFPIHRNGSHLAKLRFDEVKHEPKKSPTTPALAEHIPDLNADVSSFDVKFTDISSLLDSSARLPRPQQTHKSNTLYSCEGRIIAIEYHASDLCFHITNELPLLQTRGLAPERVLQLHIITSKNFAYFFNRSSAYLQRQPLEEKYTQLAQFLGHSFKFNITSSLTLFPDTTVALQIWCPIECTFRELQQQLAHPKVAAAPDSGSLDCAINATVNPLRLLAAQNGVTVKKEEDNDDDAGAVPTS

[2] = biological target: T1, Cdc13; test: EMSA; remark: listed apart in the source
[3] = biological target: T1, Cdc13; test: EMSA; remark: listed apart in the source
[4] = biological target: T2, Cy5-Sub1 (Sub1-Cys) (Saccharomyces cerevisiae, UniProt P54000 1-292+=C, internal_change); test: filter binding
T2 sequence: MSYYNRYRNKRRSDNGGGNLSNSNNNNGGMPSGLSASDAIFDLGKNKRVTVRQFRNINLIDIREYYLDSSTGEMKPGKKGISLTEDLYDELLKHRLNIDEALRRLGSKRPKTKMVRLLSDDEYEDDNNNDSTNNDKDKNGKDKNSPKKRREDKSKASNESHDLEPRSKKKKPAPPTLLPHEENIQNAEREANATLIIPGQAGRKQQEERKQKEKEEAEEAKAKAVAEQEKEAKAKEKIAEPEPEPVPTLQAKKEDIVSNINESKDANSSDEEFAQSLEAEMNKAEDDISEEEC

[5] = biological target: T3, Sub1 (Saccharomyces cerevisiae, UniProt P54000 1-292); test: filter binding
T3 sequence: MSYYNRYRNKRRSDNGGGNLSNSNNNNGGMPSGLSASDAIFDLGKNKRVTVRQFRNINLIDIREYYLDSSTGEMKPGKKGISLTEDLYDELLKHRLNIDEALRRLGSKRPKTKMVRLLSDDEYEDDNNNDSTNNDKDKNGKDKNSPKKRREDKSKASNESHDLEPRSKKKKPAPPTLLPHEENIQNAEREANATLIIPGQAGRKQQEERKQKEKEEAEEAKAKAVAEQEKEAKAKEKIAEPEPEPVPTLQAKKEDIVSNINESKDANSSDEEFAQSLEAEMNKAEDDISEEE

[6] = biological target: T4, S. cerevisiae Pif1 helicase (S. cerevisiae, UniProt P07271 46-859); test: fluorescence polarisation
T4 sequence (looked up): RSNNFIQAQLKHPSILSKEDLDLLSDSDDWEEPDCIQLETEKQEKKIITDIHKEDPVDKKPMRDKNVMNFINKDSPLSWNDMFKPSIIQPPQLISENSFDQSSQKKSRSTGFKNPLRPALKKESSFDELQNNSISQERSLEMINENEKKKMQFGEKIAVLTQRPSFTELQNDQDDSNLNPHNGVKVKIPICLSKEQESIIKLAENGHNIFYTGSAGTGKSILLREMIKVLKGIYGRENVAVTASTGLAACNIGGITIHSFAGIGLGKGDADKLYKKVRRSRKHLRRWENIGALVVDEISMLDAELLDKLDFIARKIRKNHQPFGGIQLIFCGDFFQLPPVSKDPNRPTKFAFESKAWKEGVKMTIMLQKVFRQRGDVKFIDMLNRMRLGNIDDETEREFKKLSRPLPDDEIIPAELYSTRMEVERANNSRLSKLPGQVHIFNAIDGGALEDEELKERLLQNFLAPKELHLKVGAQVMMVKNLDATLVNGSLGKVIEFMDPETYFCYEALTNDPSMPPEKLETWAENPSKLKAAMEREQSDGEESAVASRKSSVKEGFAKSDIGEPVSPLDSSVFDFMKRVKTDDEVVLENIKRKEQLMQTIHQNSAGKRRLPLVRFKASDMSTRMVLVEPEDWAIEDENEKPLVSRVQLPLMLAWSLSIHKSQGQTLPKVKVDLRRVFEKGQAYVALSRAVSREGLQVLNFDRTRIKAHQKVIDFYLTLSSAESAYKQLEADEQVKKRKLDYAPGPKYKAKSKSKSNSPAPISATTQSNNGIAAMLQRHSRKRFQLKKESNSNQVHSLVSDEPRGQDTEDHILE

[7] = biological target: T2, Cy5-Sub1 (Sub1-Cys); test: stopped-flow FRET dissociation
[8] = biological target: T1, Cdc13; test: EMSA; remark: listed apart in the source

CGCTGATGTCGC (ssDNA) [12 nt Mixed seq]
apparent K (half saturation) [1]: 124 ± 8.8 nM

CTGTGGGTGTG (ssDNA) [Tel11 (G1C)]
apparent K (half saturation) [2]: 150 ± 14.7 nM

GTGTGGGTGTG (ssDNA) [Tel11 telomere seq]
apparent K (half saturation) [3]: 15.3 ± 0.9 nM

TTTTTTTTTTTTTTTGAGGGTGGGTAGGGTGGGTAA (structured_DNA) [G4DNA]
Kd [4]: 2.9 ± 1.3 nM | Kd [5]: 0.86 ± 0.18 nM

B1: Cy5-labeled Sub1 (Sub1-Cys variant labeled with Cy5-maleimide) (natural protein, yeast (S. cerevisiae), UniProt P54000 1-292, looked up)
chain: MSYYNRYRNKRRSDNGGGNLSNSNNNNGGMPSGLSASDAIFDLGKNKRVTVRQFRNINLIDIREYYLDSSTGEMKPGKKGISLTEDLYDELLKHRLNIDEALRRLGSKRPKTKMVRLLSDDEYEDDNNNDSTNNDKDKNGKDKNSPKKRREDKSKASNESHDLEPRSKKKKPAPPTLLPHEENIQNAEREANATLIIPGQAGRKQQEERKQKEKEEAEEAKAKAVAEQEKEAKAKEKIAEPEPEPVPTLQAKKEDIVSNINESKDANSSDEEFAQSLEAEMNKAEDDISEEEC
modifications: Cy5 (maleimide) on the cysteine added at the C-terminal end; one molecule of Cy5 dye per protein
Kd [6]: 53 nM

TTTTTTTTTTTTTTGAGGGTGGGTAGGGTGGGT (structured_DNA) [Cy3-G4 DNA]
binding result [7]: binds

GTGTGGCTCTG (ssDNA) [Tel11 (G7C/G9C)]
apparent K (half saturation) [8]: 96.7 ± 3 nM
